US20250066490A1 (PROFOUNDBIO US, published 2025)

What was measured:
[1] = biological target: T1, human CD70 expressed on the cell surface of tumor cell lines (human, UniProt P32970 1-193); experiment: flow cytometry on U251 cells, PE anti-human Fc, MFI; same fit as Table 6, which prints it in nM
T1 construct: whole, on cells
T1 sequence (looked up): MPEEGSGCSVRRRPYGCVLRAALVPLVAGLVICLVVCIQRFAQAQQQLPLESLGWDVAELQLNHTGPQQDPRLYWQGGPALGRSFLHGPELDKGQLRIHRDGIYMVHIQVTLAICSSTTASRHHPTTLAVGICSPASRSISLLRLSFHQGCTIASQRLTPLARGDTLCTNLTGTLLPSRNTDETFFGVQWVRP
Experimental: (§1) The lead antibodies were tested for binding to renal carcinoma cells and glioblastoma cells expressing CD70 on the cell surface by flow cytometry. […] U251 cells were cultured with MEM medium containing of 10% FBS and 1% NEAA+1 mM sodium pyruvate. DBTRG-05MG cells were cultured with DMEM medium (Gibco, Cat #C11995500BT) containing of 10% FBS. Each of the lead antibodies and the controls were incubated for 30 mins with the different cell lines (3×10⁵ cells per well) in 0.2 ml FACS buffer (1×PBS with 0.1% BSA) at 4° C. Then, the cells were pelleted, washed, and incubated at 4° C. for 30 mins with 100 μl of 1:200 diluted PE-conjugated anti human Fc (Abcam, Ab98596) in FACS buffer. The cells were pelleted again, washed with PBS, resuspended in FACS buffer and analyzed by flow cytometer (Beckman, CytoFLEX).
(§2) Antibodies 2H8 and 2D2 had slightly higher binding ability to the cell lines than that of antibody 69A7.

[2] = biological target: T1, human CD70 expressed on the cell …; experiment: flow cytometry on Raji cells
Experimental: Binding activity of 2E7 or the isotype control with a target cell line (Raji) or a cell line (MCF-7) that has negligible level of CD70 expression were evaluated by flow cytometry (Beckman, Cytoflex). 3×10⁵ cells per well were seeded on a 96-well V-bottomed plate and incubated with 100 μl of 2E7 in serial dilutions. After 30 min incubation at 4° C., cells were washed twice with PBS, stained with 100 μl of 1:200 diluted PE-conjugated anti-human Fc in FACS buffer (1×PBS containing 1% BSA), then incubated at 4° C. for 30 min. Cells were finally washed two times with PBS and analyzed by flow cytometric analysis.

[3] = biological target: T2, human CD70 recombinant protein (human, UniProt P32970 39-193, limits assumed); experiment: ELISA, IgG titrated on coated human CD70 recombinant protein (2 µg/ml), anti-human Fc-HRP, OD450
T2 construct: May be the same reagent as ACRO CDL-H5246; also called CD70 protein
T2 sequence (looked up): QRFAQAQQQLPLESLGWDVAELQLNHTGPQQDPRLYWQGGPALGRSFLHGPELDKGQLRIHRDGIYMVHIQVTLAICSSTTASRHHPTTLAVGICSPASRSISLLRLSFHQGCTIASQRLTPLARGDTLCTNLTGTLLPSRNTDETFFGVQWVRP
Experimental: The binding specificity of the CD70 antibodies was tested by ELISA according to a standard protocol. Briefly, 96-well micro-plates were coated with 2 μg/ml of human or cynomolgus CD70 recombinant protein in PBS at 100 μl per well and incubated overnight at 4° C. The plates were washed twice with TBS+0.5% Tween20. 200 μL of blocking buffer (2% BSA in PBS) was added to each well, and the plates were incubated at 37° C. for 2 hours. The plates were washed using the wash buffer mentioned above. Serially diluted antibodies were added to the ELISA plates using 100 μl per well, and the plates were incubated for 1 hour at room temperature. Then plates were washed 3 times. HRP conjugated anti-human Fc antibody solution (Sigma, I18885-2ML, diluted with blocking buffer) was added to the plates using 100 μl per well. The plates were incubated at room temperature for 1 hour and then washed 3 times. Then the TMB solution was added to plates using 100 μl per well and the plates were placed at RT for 5-15 mins. Then the stop solution (2M H2SO4) was added using 50 μl per well. The absorbance was measured at A450 and A630.

[4] = biological target: T1, human CD70 expressed on the cell …; experiment: cell-based or functional assay
[5] = biological target: T1, human CD70 expressed on the cell …; experiment: flow cytometry on Caki-1 cells, PE anti-human Fc, MFI; same fit as Table 6, which prints it in nM
Experimental: as §1, §2

[6] = biological target: T3, human CD70 extra-cellular domain (ECD) linked to His tag (human, UniProt P32970 39-193); experiment: BLI (Octet RED), antibody on anti-human Fc tips, CD70 ECD-His at 100 nM
T3 construct: extracellular domain; also called Hu CD70; HU CD70; not shown: His tag
T3 sequence (looked up): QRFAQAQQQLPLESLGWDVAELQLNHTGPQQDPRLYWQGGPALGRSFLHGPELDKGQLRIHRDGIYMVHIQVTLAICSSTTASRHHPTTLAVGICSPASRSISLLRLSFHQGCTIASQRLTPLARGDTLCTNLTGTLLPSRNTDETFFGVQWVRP
Experimental: Recombinant proteins consisting of human, rat, or mouse CD70 extra-cellular domain (ECD) linked to His tag was purchased (from ACRO systems). 69A7 and 2E7 (20 nM) were immobilized on anti-human IgG Fc biosensor tips (ForteBio). Binding assays using one concentration (100 nM) of recombinant protein in solution were performed using Octet RED (ForteBio). Association time was set at 180s and dissociation time was set at 300s. Binding affinity was calculated using ForteBio Data Acquisition 6.3 software. Affinity was derived by fitting the kinetic data to a 1:1 Langmuir binding model utilizing global fitting algorithms. […] 2E7 had no cross-reactivity to rat or mouse CD70 (Table 10).

[7] = biological target: T1, human CD70 expressed on the cell …; experiment: flow cytometry on 786-O cells, PE anti-human Fc, MFI; same fit as Table 6, which prints it in nM
Experimental: as §1, §2

[8] = biological target: T1, human CD70 expressed on the cell …; experiment: flow cytometry on DBTRG-05MG cells
Experimental: as §1, §2

B1: 2E7, full IgG (antibody, V domains shown)
VH: QVQLQESGPGLVKPSETLSLTCTVSGGSVSSDYYYWSWIRQPPGKGLEWLGYIYYSGSTNYNPSLKSRVTISVDTSKNQFSLKLRSVTTADTAVYYCARGDGDFLGVCFDYWGQGTLVTVSS
VL: EIVLTQSPATLSLSPGERATLSCRASQSVSSYLAWYQQKPGQAPRLLIFDASNRATGIPARFSGSGSGTDFTLTISSLEPEDFAVYYCQQRSNWPLTFGGGTKVEIK
B1 gave an EC50 [1] of 0.604 µg/mL, an EC50 [2] of ~19 nM and an EC50 [3] of 0.0161 µg/mL. For the same binder, the “Internalization rate (%) on 786-O” value [4] was 62%, the “Internalization rate (%) on Caki-1” value [4] was 51% and the EC50 [5] was 0.421 µg/mL. It also gave a Kd [6] of 0.979 nM, a koff [6] of 0.000357 s⁻¹ and a kon [6] of 365000 M⁻¹ s⁻¹. The EC50 [7] was 0.403 µg/mL and the EC50 [8] was 6.11 nM.
